{"source": "the supplement of paper PMC9112550", "about": "“Optimization of the antimicrobial peptide Bac7 by deep mutational scanning” (BMC Biology, 2022);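 also: peptides expressed intracellularly from a pBAD plasmid library in pooled LB shake-flask culture, induced with 0.3% L-arabinose, DNA abundance read by NGS, three biological replicates, DESeq2 with apeglm shrinkage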", "data": [{"test_system": "Escherichia coli TOP10", "experiment": "shrunken log2 fold change of peptide-encoding DNA abundance (4.5 h post-induction vs induction); higher = less antimicrobial activity (less host growth inhibition)", "conditions": "time post-induction: 4.5 h; library: site-saturation at positions 5, 18, 19, 20", "values": [{"sequence": "RRIRIRPPRLPRPRPRPVKPPRP", "shrunken log2 fold change": 0.0254}, {"sequence": "RRIRIRPPRLPRPRPRPVMVPRP", "shrunken log2 fold change": -0.066}, {"sequence": "RRIRIRPPRLPRPRPRPVPAPRP", "shrunken log2 fold change": 0.0984}, {"sequence": "RRIRIRPPRLPRPRPRPVQTPRP", "shrunken log2 fold change": -0.0646}, {"sequence": "RRIRIRPPRLPRPRPRPVTRPRP", "shrunken log2 fold change": 0.0796}, {"sequence": "RRIRIRPPRLPRPRPRPVVYPRP", "shrunken log2 fold change": -0.312}, {"sequence": "RRIRIRPPRLPRPRPRPVWAPRP", "shrunken log2 fold change": -0.0187}, {"sequence": "RRIRIRPPRLPRPRPRPWAIPRP", "shrunken log2 fold change": -0.0196}, {"sequence": "RRIRIRPPRLPRPRPRPWCRPRP", "shrunken log2 fold change": -0.521}, {"sequence": "RRIRIRPPRLPRPRPRPWGYPRP", "shrunken log2 fold change": -0.156}, {"sequence": "RRIRIRPPRLPRPRPRPWHDPRP", "shrunken log2 fold change": -0.676}, {"sequence": "RRIRIRPPRLPRPRPRPWICPRP", "shrunken log2 fold change": -0.132}, {"sequence": "RRIRIRPPRLPRPRPRPWILPRP", "shrunken log2 fold change": -0.349}, {"sequence": "RRIRIRPPRLPRPRPRPWITPRP", "shrunken log2 fold change": -0.917}, {"sequence": "RRIRIRPPRLPRPRPRPWKWPRP", "shrunken log2 fold change": -0.00992}, {"sequence": "RRIRIRPPRLPRPRPRPWMNPRP", "shrunken log2 fold change": -0.238}, {"sequence": "RRIRIRPPRLPRPRPRPWNLPRP", "shrunken log2 fold change": 0.0133}, {"sequence": "RRIRIRPPRLPRPRPRPWNRPRP", "shrunken log2 fold change": 0.000744}, {"sequence": "RRIRIRPPRLPRPRPRPWNTPRP", "shrunken log2 fold change": -0.256}, {"sequence": "RRIRIRPPRLPRPRPRPWPFPRP", "shrunken log2 fold change": -0.259}, {"sequence": "RRIRIRPPRLPRPRPRPWPGPRP", "shrunken log2 fold change": -0.172}, {"sequence": "RRIRIRPPRLPRPRPRPWPTPRP", "shrunken log2 fold change": 0.331}, {"sequence": "RRIRIRPPRLPRPRPRPWQTPRP", "shrunken log2 fold change": 0.0238}, {"sequence": "RRIRIRPPRLPRPRPRPWRDPRP", "shrunken log2 fold change": -0.0858}, {"sequence": "RRIRIRPPRLPRPRPRPWRGPRP", "shrunken log2 fold change": -0.129}, {"sequence": "RRIRIRPPRLPRPRPRPWTEPRP", "shrunken log2 fold change": -0.843}, {"sequence": "RRIRIRPPRLPRPRPRPWTKPRP", "shrunken log2 fold change": 0.0573}, {"sequence": "RRIRIRPPRLPRPRPRPWTPPRP", "shrunken log2 fold change": -0.179}, {"sequence": "RRIRIRPPRLPRPRPRPWVIPRP", "shrunken log2 fold change": -0.0141}, {"sequence": "RRIRIRPPRLPRPRPRPWWDPRP", "shrunken log2 fold change": -0.309}, {"sequence": "RRIRIRPPRLPRPRPRPWWPPRP", "shrunken log2 fold change": 0.027}, {"sequence": "RRIRIRPPRLPRPRPRPWWRPRP", "shrunken log2 fold change": -0.0114}, {"sequence": "RRIRIRPPRLPRPRPRPWYHPRP", "shrunken log2 fold change": -0.351}, {"sequence": "RRIRIRPPRLPRPRPRPWYKPRP", "shrunken log2 fold change": -0.689}, {"sequence": "RRIRIRPPRLPRPRPRPWYRPRP", "shrunken log2 fold change": -0.678}, {"sequence": "RRIRIRPPRLPRPRPRPYDPPRP", "shrunken log2 fold change": -0.0306}, {"sequence": "RRIRIRPPRLPRPRPRPYDVPRP", "shrunken log2 fold change": -0.101}, {"sequence": "RRIRIRPPRLPRPRPRPYENPRP", "shrunken log2 fold change": -0.255}, {"sequence": "RRIRIRPPRLPRPRPRPYFGPRP", "shrunken log2 fold change": -0.0455}, {"sequence": "RRIRIRPPRLPRPRPRPYHMPRP", "shrunken log2 fold change": -0.123}, {"sequence": "RRIRIRPPRLPRPRPRPYIAPRP", "shrunken log2 fold change": -0.158}, {"sequence": "RRIRIRPPRLPRPRPRPYKNPRP", "shrunken log2 fold change": -0.814}, {"sequence": "RRIRIRPPRLPRPRPRPYLDPRP", "shrunken log2 fold change": -1.02}, {"sequence": "RRIRIRPPRLPRPRPRPYLNPRP", "shrunken log2 fold change": -0.239}, {"sequence": "RRIRIRPPRLPRPRPRPYLRPRP", "shrunken log2 fold change": -0.086}, {"sequence": "RRIRIRPPRLPRPRPRPYMLPRP", "shrunken log2 fold change": -0.916}, {"sequence": "RRIRIRPPRLPRPRPRPYNCPRP", "shrunken log2 fold change": -0.411}, {"sequence": "RRIRIRPPRLPRPRPRPYNLPRP", "shrunken log2 fold change": -0.391}, {"sequence": "RRIRIRPPRLPRPRPRPYNNPRP", "shrunken log2 fold change": -0.462}, {"sequence": "RRIRIRPPRLPRPRPRPYPLPRP", "shrunken log2 fold change": -0.176}, {"sequence": "RRIRIRPPRLPRPRPRPYPQPRP", "shrunken log2 fold change": -0.974}, {"sequence": "RRIRIRPPRLPRPRPRPYPRPRP", "shrunken log2 fold change": -0.311}, {"sequence": "RRIRIRPPRLPRPRPRPYPVPRP", "shrunken log2 fold change": -0.18}, {"sequence": "RRIRIRPPRLPRPRPRPYPWPRP", "shrunken log2 fold change": -1.06}, {"sequence": "RRIRIRPPRLPRPRPRPYQCPRP", "shrunken log2 fold change": -0.349}, {"sequence": "RRIRIRPPRLPRPRPRPYQMPRP", "shrunken log2 fold change": -0.35}, {"sequence": "RRIRIRPPRLPRPRPRPYRNPRP", "shrunken log2 fold change": -0.0378}, {"sequence": "RRIRIRPPRLPRPRPRPYRQPRP", "shrunken log2 fold change": -0.326}, {"sequence": "RRIRIRPPRLPRPRPRPYSPPRP", "shrunken log2 fold change": -0.0324}, {"sequence": "RRIRIRPPRLPRPRPRPYTNPRP", "shrunken log2 fold change": -0.957}, {"sequence": "RRIRIRPPRLPRPRPRPYVHPRP", "shrunken log2 fold change": -0.189}, {"sequence": "RRIRIRPPRLPRPRPRPYVKPRP", "shrunken log2 fold change": -0.881}, {"sequence": "RRIRIRPPRLPRPRPRPYWSPRP", "shrunken log2 fold change": 0.0464}, {"sequence": "RRIRIRPPRLPRPRPRPYWYPRP", "shrunken log2 fold change": -0.0124}, {"sequence": "RRIRIRPPRLPRPRPRPYYWPRP", "shrunken log2 fold change": -0.449}, {"sequence": "RRIRKRPPRLPRPRPRPAAGPRP", "shrunken log2 fold change": 0.896}, {"sequence": "RRIRKRPPRLPRPRPRPADCPRP", "shrunken log2 fold change": 0.117}, {"sequence": "RRIRKRPPRLPRPRPRPADNPRP", "shrunken log2 fold change": 0.0284}, {"sequence": "RRIRKRPPRLPRPRPRPADPPRP", "shrunken log2 fold change": -0.0715}, {"sequence": "RRIRKRPPRLPRPRPRPAEDPRP", "shrunken log2 fold change": 1.33}, {"sequence": "RRIRKRPPRLPRPRPRPAFTPRP", "shrunken log2 fold change": 0.021}, {"sequence": "RRIRKRPPRLPRPRPRPAGAPRP", "shrunken log2 fold change": 0.698}, {"sequence": "RRIRKRPPRLPRPRPRPAGWPRP", "shrunken log2 fold change": 0.893}, {"sequence": "RRIRKRPPRLPRPRPRPAGYPRP", "shrunken log2 fold change": 0.0743}, {"sequence": "RRIRKRPPRLPRPRPRPAHPPRP", "shrunken log2 fold change": 0.711}, {"sequence": "RRIRKRPPRLPRPRPRPAIYPRP", "shrunken log2 fold change": -0.109}, {"sequence": "RRIRKRPPRLPRPRPRPAKYPRP", "shrunken log2 fold change": 0.0456}, {"sequence": "RRIRKRPPRLPRPRPRPALFPRP", "shrunken log2 fold change": 0.497}, {"sequence": "RRIRKRPPRLPRPRPRPANGPRP", "shrunken log2 fold change": 0.566}, {"sequence": "RRIRKRPPRLPRPRPRPAPDPRP", "shrunken log2 fold change": 0.598}, {"sequence": "RRIRKRPPRLPRPRPRPAPSPRP", "shrunken log2 fold change": 0.748}, {"sequence": "RRIRKRPPRLPRPRPRPARVPRP", "shrunken log2 fold change": 0.857}, {"sequence": "RRIRKRPPRLPRPRPRPASIPRP", "shrunken log2 fold change": 0.0215}, {"sequence": "RRIRKRPPRLPRPRPRPASNPRP", "shrunken log2 fold change": 0.147}, {"sequence": "RRIRKRPPRLPRPRPRPASYPRP", "shrunken log2 fold change": -0.0778}, {"sequence": "RRIRKRPPRLPRPRPRPATEPRP", "shrunken log2 fold change": 0.486}, {"sequence": "RRIRKRPPRLPRPRPRPATMPRP", "shrunken log2 fold change": 0.49}, {"sequence": "RRIRKRPPRLPRPRPRPAVCPRP", "shrunken log2 fold change": 0.356}, {"sequence": "RRIRKRPPRLPRPRPRPAVEPRP", "shrunken log2 fold change": 0.019}, {"sequence": "RRIRKRPPRLPRPRPRPAVMPRP", "shrunken log2 fold change": 0.881}, {"sequence": "RRIRKRPPRLPRPRPRPAVNPRP", "shrunken log2 fold change": -0.0383}, {"sequence": "RRIRKRPPRLPRPRPRPAWAPRP", "shrunken log2 fold change": 0.577}, {"sequence": "RRIRKRPPRLPRPRPRPAWWPRP", "shrunken log2 fold change": 0.577}, {"sequence": "RRIRKRPPRLPRPRPRPCAWPRP", "shrunken log2 fold change": 0.953}, {"sequence": "RRIRKRPPRLPRPRPRPCEQPRP", "shrunken log2 fold change": 0.324}, {"sequence": "RRIRKRPPRLPRPRPRPCFNPRP", "shrunken log2 fold change": -0.0824}, {"sequence": "RRIRKRPPRLPRPRPRPCFYPRP", "shrunken log2 fold change": -0.115}, {"sequence": "RRIRKRPPRLPRPRPRPCGCPRP", "shrunken log2 fold change": 0.249}, {"sequence": "RRIRKRPPRLPRPRPRPCHFPRP", "shrunken log2 fold change": -0.0404}, {"sequence": "RRIRKRPPRLPRPRPRPCHYPRP", "shrunken log2 fold change": -0.117}, {"sequence": "RRIRKRPPRLPRPRPRPCIIPRP", "shrunken log2 fold change": -0.108}, {"sequence": "RRIRKRPPRLPRPRPRPCLTPRP", "shrunken log2 fold change": -0.0179}, {"sequence": "RRIRKRPPRLPRPRPRPCMAPRP", "shrunken log2 fold change": 0.0448}, {"sequence": "RRIRKRPPRLPRPRPRPCNGPRP", "shrunken log2 fold change": -0.0184}, {"sequence": "RRIRKRPPRLPRPRPRPCPLPRP", "shrunken log2 fold change": -0.24}, {"sequence": "RRIRKRPPRLPRPRPRPCRWPRP", "shrunken log2 fold change": -0.0708}, {"sequence": "RRIRKRPPRLPRPRPRPCTPPRP", "shrunken log2 fold change": 0.192}, {"sequence": "RRIRKRPPRLPRPRPRPCVNPRP", "shrunken log2 fold change": 0.0687}, {"sequence": "RRIRKRPPRLPRPRPRPCWFPRP", "shrunken log2 fold change": -0.0655}]}]}
